The results in this text go back to publication PMC12117405 (Nucleic Acids Research, 2025).

Among the targets are Lsm6/5/7 (human, UniProt P62312;Q9Y4Y9;Q9UK45); SmD1/D2 (human, UniProt P62314;P62316); SmF/E/G (human, UniProt P62306;P62304;P62308).
Common to all, as to assay: pull-down

Sequence of Lsm6/5/7 (Q9Y4Y9 whole entry, chain 2 of 2): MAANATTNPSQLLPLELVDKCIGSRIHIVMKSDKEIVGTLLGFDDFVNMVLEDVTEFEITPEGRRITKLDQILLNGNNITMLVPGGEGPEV
Sequence of Lsm6/5/7 (Q9UK45 whole entry, chain 3 of 2): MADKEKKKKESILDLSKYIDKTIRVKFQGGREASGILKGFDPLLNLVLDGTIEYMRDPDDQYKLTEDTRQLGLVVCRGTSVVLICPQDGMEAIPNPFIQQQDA

B1: Lsm2/3 (complex)
chain 1: MLFYSFFKSLVGKDVVVELKNDLSICGTLHSVDQYLNIKLTDISVTDPEKYPHMLSVKNCFIRGSVVRYVQLPADEVDTQLLQDAARKEALQQKQ
chain 2: not shown
In the case of B1, in the assay with Lsm6/5/7, the binding result was “binds”.

B2: His-tagged Gemin2/MBP-SMN(26-62) (complex)
chain 1: FDPSVPPRTPQEYLRRVQIEAAQCPDVVVAQIDPKKLKRKQSVNISLSGCQPAPEGYSPTLQWQQQQVAQFSTVRQNVNKHRSHWKSQQLDSNVTMPKSEDEEGWKKFCLGEKLCADGAVGPATNESPGIDYVQIGFPPLLSIVSRMNQATVTSVLEYLSNWFGERDFTPELGRWLYALLACLEKPLLPEAHSLIRQLARRCSEVRLLVDSKDDERVPALNLLICLVSRYFDQRDLADEPS
chain 2: GQSDDSDIWDDTALIKAYDKAVASFKHALKNGDICET
Regarding B2, the binding result in the assay with SmD1/D2 and with SmF/E/G was “binds” throughout.
